Reference: patent US9284543B2, “Neutral active soluble truncated PH20 polypeptides and uses thereof” (Halozyme, Inc., priority 2008, dated 2016)

How the values were obtained:
CHO-S cells = assay: Western blot analysis of PH20 expression in media and cells after transient expression; format: cell-based, Chinese Hamster; details: media versus cells
Description: The mutant PH20-HZ24 plasmids generated in Example 1 were transiently […] into CHO—S cells (derived from Chinese Hamster Ovary CHO K1 cells) using GeneJuice® (Novagen) according to the manufacturer's instructions. In short, the CHO—S cells were grown in CD CHO medium supplemented with L-glutamine. Prior to transfection, the CHO—S cells were plated in 6-well plates, with approximately 5×10^5 cells per well, and grown overnight at 37° C. with 5% CO2. The medium was then removed and the CHO—S cells were washed 2 times with 1 mL serum-free medium. GeneJuice® was mixed with serum-free media followed by the addition of 2 μg mutant-HZ24 DNA. After incubating at room temperature for 5-15 minutes, the GeneJuice®/DNA mixture was added dropwise to an individual well containing the washed CHO—S cells. After 4 hours, the medium was replaced with 1 mL CD-CHO medium supplemented with L-glutamine and the cells were incubated for 72 hours at 37° C. with 5% CO2. Following expression, the media and cells were harvested separately.
The mutant PH20-HZ24 plasmids generated in Example 1 were transiently […] into CHO—S cells using GeneJuice® (Novagen) according to the manufacturer's instructions. […]
In this example, following transient expression, as described in Example 2 above, the media and cells were harvested separately and analyzed for PH20 expression and solublility by Western blot analysis. Solubility of the C-terminus truncation mutants was determined by examining whether the expressed protein was present in the growth media or in the cells. […] Cells expressing these mutants were treated with phosphoinositol-phospholipase C (PI-PLC), which cleaves the GPI-anchor allowing the release of soluble protein into the media, and the presence of PH20 in the resulting media and cells was determined by Western blot analysis.
Non-reduced samples were run on a 4-20% Tris-Glycine gel and transferred to PVDF membrane using iBlot (Invitrogen). For the Western blot, rabbit anti-PH20 IgG (0.5 μg/mL) was used as the primary antibody and HRP-conjugated goat anti-rabbit IgG (0.1 ng/mL, Cat#DC03L, EMD) was used as the secondary antibody. Evidence of expression is determined by a band at approximately 66 kDa, corresponding to recombinant human PH20 hyaluronidase.

[1] = Microtiter hyaluronidase activity assay with biotinylated-hyaluronic acid; format: biochemical; details: Table 6, 72 hour post transfection supernatant
Description: In Example 4, the hyaluronidase activity of truncated human PH20 hyaluronidase is determined using biotinylated hyaluronic acid. The free carboxyl groups on the glucuronic acid residues of hyaluronic acid are biotinylated, and the biotinylated hyaluronic acid substrate is covalently coupled to a microtiter plate. Following incubation with hyaluronidase, the residual biotinylated hyaluronic acid substrate is detected using an avidin-peroxidase reaction, and compared to that obtained following reaction with hyaluronidase standards of known activity. […] The sensitivity permits rapid measurement of hyaluronidase activity from cultured cells and biological samples with an inter-assay variation of less than 10%.
In this example, the human PH20 hyaluronidase carboxy-terminus deletion mutants were tested for their PH20 hyaluronidase activity using a microtiter assay with biotinylated-hyaluronic acid (biotinylated-HA or bHA). The human PH20 hyaluronidase carboxy-terminus deletion mutants were tested for hyaluronidase activity at both pH 7.4 and pH 5.5.
In short, a 4×BH 96-well plate was coated with biotinylated-HA (1.1 MDa). The 72 hour post transfection supernatant from cells transfected with human PH20 hyaluronidase carboxy-terminus deletion mutants was diluted in buffer at either pH 7.4 or pH 5.5 and added to individual wells of the plate and allowed to incubate at 37° C. for 90 minutes. The reaction was terminated by addition of 4M guanidine HCl. The wells were washed 4× with Phosphate Buffered Saline with Tween20 (PBST) to remove any digested biotinylated-HA followed by addition of streptavidin-HRP for 1 hour at room temperature. The wells were washed 4× with PBST and the plate was developed with TMB. The plate was read at 450 nm using an ELISA plate reader. Hyaluronidase activity (in Units/mL) was determined by interpolating the measured absorbance at 450 nm with a hyaluronidase reference standard curve. Full length mature human PH20 hyaluronidase and untransfected CHO cells were used as positive and negative controls.

Molecule	Expressed in Media (CHO-S cells)	pH 5.5 Activity [1] [Units/ml]	pH 7.4 Activity [1] [Units/ml]
SPAM1-IDAF: C-terminally truncated human PH20, precursor 468 aa (SEQ ID NO:32), mature 433 aa (SEQ ID NO:84) (protein, listed as Homo sapiens, HuPH20 precursor 1-468; Mature HuPH20 36-468) chain 1: MGVLKFKHIFFRSFVKSSGVSQIVFTFLLIPCCLTLNFRAPPVIPNVPFLWAWNAPSEFCLGKFDEPLDMSLFSFIGSPRINATGQGVTIFYVDRLGYYPYIDSITGVTVNGGIPQKISLQDHLDKAKKDITFYMPVDNLGMAVIDWEEWRPTWARNWKPKDVYKNRSIELVQQQNVQLSLTEATEKAKQEFEKAGKDFLVETIKLGKLLRPNHLWGYYLFPDCYNHHYKKPGYNGSCFNVEIKRNDDLSWLWNESTALYPSIYLNTQQSPVAATLYVRNRVREAIRVSKIPDAKSPLPVFAYTRIVFTDQVLKFLSQDELVYTFGETVALGASGIVIWGTLSIMRSMKSCLLLDNYMETILNPYIINVTLAAKMCSQVLCQEQGVCIRKNWNSSDYLHLNPDNFAIQLEKGGKFTVRGKPTLEDLEQFSEKFYCSCYSTLSCKEKADVKDTDAVDVCIADGVCIDAF chain 2: LNFRAPPVIPNVPFLWAWNAPSEFCLGKFDEPLDMSLFSFIGSPRINATGQGVTIFYVDRLGYYPYIDSITGVTVNGGIPQKISLQDHLDKAKKDITFYMPVDNLGMAVIDWEEWRPTWARNWKPKDVYKNRSIELVQQQNVQLSLTEATEKAKQEFEKAGKDFLVETIKLGKLLRPNHLWGYYLFPDCYNHHYKKPGYNGSCFNVEIKRNDDLSWLWNESTALYPSIYLNTQQSPVAATLYVRNRVREAIRVSKIPDAKSPLPVFAYTRIVFTDQVLKFLSQDELVYTFGETVALGASGIVIWGTLSIMRSMKSCLLLDNYMETILNPYIINVTLAAKMCSQVLCQEQGVCIRKNWNSSDYLHLNPDNFAIQLEKGGKFTVRGKPTLEDLEQFSEKFYCSCYSTLSCKEKADVKDTDAVDVCIADGVCIDAF	YES	0.6278	0.5625
SPAM1-CIDA: C-terminally truncated human PH20, precursor 467 aa (SEQ ID NO:33), mature 432 aa (SEQ ID NO:85) (protein, listed as Homo sapiens, HuPH20 precursor 1-467; Mature HuPH20 36-467) chain 1: MGVLKFKHIFFRSFVKSSGVSQIVFTFLLIPCCLTLNFRAPPVIPNVPFLWAWNAPSEFCLGKFDEPLDMSLFSFIGSPRINATGQGVTIFYVDRLGYYPYIDSITGVTVNGGIPQKISLQDHLDKAKKDITFYMPVDNLGMAVIDWEEWRPTWARNWKPKDVYKNRSIELVQQQNVQLSLTEATEKAKQEFEKAGKDFLVETIKLGKLLRPNHLWGYYLFPDCYNHHYKKPGYNGSCFNVEIKRNDDLSWLWNESTALYPSIYLNTQQSPVAATLYVRNRVREAIRVSKIPDAKSPLPVFAYTRIVFTDQVLKFLSQDELVYTFGETVALGASGIVIWGTLSIMRSMKSCLLLDNYMETILNPYIINVTLAAKMCSQVLCQEQGVCIRKNWNSSDYLHLNPDNFAIQLEKGGKFTVRGKPTLEDLEQFSEKFYCSCYSTLSCKEKADVKDTDAVDVCIADGVCIDA chain 2: LNFRAPPVIPNVPFLWAWNAPSEFCLGKFDEPLDMSLFSFIGSPRINATGQGVTIFYVDRLGYYPYIDSITGVTVNGGIPQKISLQDHLDKAKKDITFYMPVDNLGMAVIDWEEWRPTWARNWKPKDVYKNRSIELVQQQNVQLSLTEATEKAKQEFEKAGKDFLVETIKLGKLLRPNHLWGYYLFPDCYNHHYKKPGYNGSCFNVEIKRNDDLSWLWNESTALYPSIYLNTQQSPVAATLYVRNRVREAIRVSKIPDAKSPLPVFAYTRIVFTDQVLKFLSQDELVYTFGETVALGASGIVIWGTLSIMRSMKSCLLLDNYMETILNPYIINVTLAAKMCSQVLCQEQGVCIRKNWNSSDYLHLNPDNFAIQLEKGGKFTVRGKPTLEDLEQFSEKFYCSCYSTLSCKEKADVKDTDAVDVCIADGVCIDA	YES	0.4725	0.5535
SPAM1-VCID: C-terminally truncated human PH20, precursor 466 aa (SEQ ID NO:34), mature 431 aa (SEQ ID NO:86) (protein, listed as Homo sapiens, HuPH20 precursor 1-466; Mature HuPH20 36-466) chain 1: MGVLKFKHIFFRSFVKSSGVSQIVFTFLLIPCCLTLNFRAPPVIPNVPFLWAWNAPSEFCLGKFDEPLDMSLFSFIGSPRINATGQGVTIFYVDRLGYYPYIDSITGVTVNGGIPQKISLQDHLDKAKKDITFYMPVDNLGMAVIDWEEWRPTWARNWKPKDVYKNRSIELVQQQNVQLSLTEATEKAKQEFEKAGKDFLVETIKLGKLLRPNHLWGYYLFPDCYNHHYKKPGYNGSCFNVEIKRNDDLSWLWNESTALYPSIYLNTQQSPVAATLYVRNRVREAIRVSKIPDAKSPLPVFAYTRIVFTDQVLKFLSQDELVYTFGETVALGASGIVIWGTLSIMRSMKSCLLLDNYMETILNPYIINVTLAAKMCSQVLCQEQGVCIRKNWNSSDYLHLNPDNFAIQLEKGGKFTVRGKPTLEDLEQFSEKFYCSCYSTLSCKEKADVKDTDAVDVCIADGVCID chain 2: LNFRAPPVIPNVPFLWAWNAPSEFCLGKFDEPLDMSLFSFIGSPRINATGQGVTIFYVDRLGYYPYIDSITGVTVNGGIPQKISLQDHLDKAKKDITFYMPVDNLGMAVIDWEEWRPTWARNWKPKDVYKNRSIELVQQQNVQLSLTEATEKAKQEFEKAGKDFLVETIKLGKLLRPNHLWGYYLFPDCYNHHYKKPGYNGSCFNVEIKRNDDLSWLWNESTALYPSIYLNTQQSPVAATLYVRNRVREAIRVSKIPDAKSPLPVFAYTRIVFTDQVLKFLSQDELVYTFGETVALGASGIVIWGTLSIMRSMKSCLLLDNYMETILNPYIINVTLAAKMCSQVLCQEQGVCIRKNWNSSDYLHLNPDNFAIQLEKGGKFTVRGKPTLEDLEQFSEKFYCSCYSTLSCKEKADVKDTDAVDVCIADGVCID	YES	0.2115	0
SPAM1-GVCI: C-terminally truncated human PH20, precursor 465 aa (SEQ ID NO:35), mature 430 aa (SEQ ID NO:87) (protein, listed as Homo sapiens, HuPH20 precursor 1-465; Mature HuPH20 36-465) chain 1: MGVLKFKHIFFRSFVKSSGVSQIVFTFLLIPCCLTLNFRAPPVIPNVPFLWAWNAPSEFCLGKFDEPLDMSLFSFIGSPRINATGQGVTIFYVDRLGYYPYIDSITGVTVNGGIPQKISLQDHLDKAKKDITFYMPVDNLGMAVIDWEEWRPTWARNWKPKDVYKNRSIELVQQQNVQLSLTEATEKAKQEFEKAGKDFLVETIKLGKLLRPNHLWGYYLFPDCYNHHYKKPGYNGSCFNVEIKRNDDLSWLWNESTALYPSIYLNTQQSPVAATLYVRNRVREAIRVSKIPDAKSPLPVFAYTRIVFTDQVLKFLSQDELVYTFGETVALGASGIVIWGTLSIMRSMKSCLLLDNYMETILNPYIINVTLAAKMCSQVLCQEQGVCIRKNWNSSDYLHLNPDNFAIQLEKGGKFTVRGKPTLEDLEQFSEKFYCSCYSTLSCKEKADVKDTDAVDVCIADGVCI chain 2: LNFRAPPVIPNVPFLWAWNAPSEFCLGKFDEPLDMSLFSFIGSPRINATGQGVTIFYVDRLGYYPYIDSITGVTVNGGIPQKISLQDHLDKAKKDITFYMPVDNLGMAVIDWEEWRPTWARNWKPKDVYKNRSIELVQQQNVQLSLTEATEKAKQEFEKAGKDFLVETIKLGKLLRPNHLWGYYLFPDCYNHHYKKPGYNGSCFNVEIKRNDDLSWLWNESTALYPSIYLNTQQSPVAATLYVRNRVREAIRVSKIPDAKSPLPVFAYTRIVFTDQVLKFLSQDELVYTFGETVALGASGIVIWGTLSIMRSMKSCLLLDNYMETILNPYIINVTLAAKMCSQVLCQEQGVCIRKNWNSSDYLHLNPDNFAIQLEKGGKFTVRGKPTLEDLEQFSEKFYCSCYSTLSCKEKADVKDTDAVDVCIADGVCI	YES	0.468	0.441
